What was measured:
hTROP-2 = molecular target: T1, hTROP-2 (Homo sapiens, UniProt P09758); test: Antibody protein level binding assay (ELISA); settings: absorbance at 450 nm
T1 sequence (P09758 27-274): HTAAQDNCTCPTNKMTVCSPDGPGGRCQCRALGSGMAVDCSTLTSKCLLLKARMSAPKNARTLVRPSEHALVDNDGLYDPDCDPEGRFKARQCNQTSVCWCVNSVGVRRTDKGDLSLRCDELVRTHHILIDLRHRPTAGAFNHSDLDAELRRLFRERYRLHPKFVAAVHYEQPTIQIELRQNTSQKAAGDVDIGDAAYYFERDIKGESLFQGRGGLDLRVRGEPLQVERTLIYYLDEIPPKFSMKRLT
Procedure: (§1) hTROP-2 protein was diluted to 1 μg/mL with PBS buffer at pH 7.4 (Shanghai BasalMedia Technologies Co., LTD., B320), added into a 96-well microplate at 100 μL per well, and incubated at 4° C. overnight. After the liquid was discarded, 300 μL of 5% skim milk (BD, 232100) diluted with PBS was added into each well for blocking and incubated at 37° C. for 2 h. After the blocking was completed, the blocking solution was discarded; after the plate was washed 3 times with PBST buffer (pH 7.4, PBS containing 0.1% tween-20), 100 μL of a gradient diluted antibody solution was added into each well and incubated at 37° C. for 1 h. After the incubation was completed, the plate was washed 3 times with PBST buffer, and 100 μL of 1:8000 diluted mouse anti-human IgG (H+L) (Jackson ImmunoResearch, 209-035-088) was added into each well and incubated at 37° C. for 1 h. After the plate was washed 3 times with PBST buffer, 100 μL of TMB chromogenic substrate (KPL, 5120-0077) was added into each well and incubated at room temperature for 10-15 min, and the reaction was terminated by adding 50 μL of 1 M H2504 into each well. The plate was detected for the absorbance at 450 nm using a microplate reader, the binding curves of antibodies to antigen were fitted with software, and the EC50 value was calculated.

TROP-2 = test: Antibody endocytosis assay (DT3C cell killing); assay type: cell-based; settings: antibody-DT3C mixture, three days, CTG
[1] = molecular target: T2, TROP-2 expressed on tumor cell lines (FaDu, HCC827, Colo205, DMS53, SK-OV-3) (human, UniProt P09758 27-323); test: cell-based or functional assay
T2 sequence: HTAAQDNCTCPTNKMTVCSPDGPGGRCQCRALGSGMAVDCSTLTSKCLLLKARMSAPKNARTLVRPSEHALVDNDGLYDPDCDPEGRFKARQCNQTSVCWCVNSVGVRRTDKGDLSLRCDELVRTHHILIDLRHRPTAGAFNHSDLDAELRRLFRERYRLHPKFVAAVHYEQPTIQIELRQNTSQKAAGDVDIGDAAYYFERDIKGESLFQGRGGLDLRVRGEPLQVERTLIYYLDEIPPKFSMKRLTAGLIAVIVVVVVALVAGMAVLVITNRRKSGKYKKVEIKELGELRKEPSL

[2] = molecular target: T3, human TROP-2 on stably transfected CHO-K1 cells (CHO-K1/hTROP-2) (human, UniProt P09758 27-323); test: flow cytometry on stably transfected TROP-2-expressing CHOK1 cells
T3 construct: Full-length TROP-2 (Genbank NP_002344.2) expressed from a lentiviral vector; also called stably transfected TROP-2-expressing CHOK1 cells; hTROP-2 protein-expressing cells
T3 sequence: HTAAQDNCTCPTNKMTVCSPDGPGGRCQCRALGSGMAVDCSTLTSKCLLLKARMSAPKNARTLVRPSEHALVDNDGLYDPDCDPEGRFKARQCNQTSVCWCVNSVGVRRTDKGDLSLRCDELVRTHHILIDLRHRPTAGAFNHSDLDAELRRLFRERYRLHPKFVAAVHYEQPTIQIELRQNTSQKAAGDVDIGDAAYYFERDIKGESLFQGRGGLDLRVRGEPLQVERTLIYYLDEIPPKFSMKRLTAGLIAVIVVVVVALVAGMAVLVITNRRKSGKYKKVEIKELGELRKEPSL
Procedure: (§2) After centrifugation and removal of the supernatant, the test antibodies that was diluted with FACS buffer to different concentrations were added at 50 μL/well. The plate was incubated in the dark in a 4° C. refrigerator for 1 h. The plate was washed 3 times with FACS buffer by centrifugation at 300 g, and Alexa Fluor 488 goat anti-human IgG (H+L) (invitrogen, A-11013) at working concentration was added. The plate was incubated in the dark in a 4° C. refrigerator for 40 min. The plate was washed 3 times with FACS buffer by centrifugation at 300 g and tested on a BD FACSCantoII flow cytometer for geometric mean fluorescence intensity (MFI). The binding EC₅₀ value of the antibody to the stably transfected TROP-2-expressing cells was calculated.

[3] = molecular target: T4, hTROP-2 protein (huTROP-2 protein, His27-Thr274, accession No. NP_002344.2) (human, UniProt P09758 27-274); test: SPR (Biacore T200), antibody captured on chip, hTROP-2 as analyte, 1:1 Langmuir fit
T4 construct: No tag is stated for this construct; also called antigen hTROP-2
T4 sequence: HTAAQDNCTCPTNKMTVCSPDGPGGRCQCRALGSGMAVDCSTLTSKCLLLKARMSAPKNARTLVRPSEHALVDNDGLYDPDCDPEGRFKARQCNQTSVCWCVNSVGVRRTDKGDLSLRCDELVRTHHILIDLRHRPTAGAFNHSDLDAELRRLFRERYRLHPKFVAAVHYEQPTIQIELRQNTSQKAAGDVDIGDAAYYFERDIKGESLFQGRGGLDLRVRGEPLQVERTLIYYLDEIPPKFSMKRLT
Text: The affinity of antibody for TROP-2 was detected in a form of a capture antibody. […] After dissociation was completed for each assay cycle, the chip was washed clean and regenerated with regeneration buffer, Glycine1.5 (Cat. #BR100354, GE) or 3 M MgCl₂ (from Human antibody capture kit, Cat. #BR100839, GE). After the assay was completed, the data were fitted with (1:1) Langmuir model using GE Biacore T200 Evaluation version 3.0 to obtain affinity values.

[4] = molecular target: T4, hTROP-2 protein (huTROP-2 protein, …); test: ELISA, plate coated with hTROP-2 protein at 1 ug/mL, anti-human IgG detection, OD450
Procedure: as §1, with “EC₅₀” for “EC50”

[5] = molecular target: T3, human TROP-2 on stably transfected …; test: flow cytometry (geometric mean fluorescence) on stably transfected TROP-2-expressing CHOK1 cells, Alexa Fluor 488 anti-human IgG detection
Procedure: as §2

[6] = molecular target: T2, TROP-2 expressed on tumor cell lines …; test: cell-based or functional assay; remark: listed apart in the source

With “hRS7: control anti-TROP-2 antibody, heavy chain SEQ ID NO: 15, light chain SEQ ID NO: 16, constructed with reference to WO03074566 [reference compound]” the “Emax (OD value)” value (hTROP-2) was 1.37 OD value and the Emax (TROP-2) was 98.5%.

B1: ADC-4 (TINA-58, n=3.99) (antibody, human IgG1, kappa, V domains shown)
VH: QVQLVQSGAEVKKPGASVKVSCKASGYTFTTAGMQWVRQAPGQGLEWMGWINTHSGVPKYAEDFKGRVTISADTSTSTAYLQLSSLKSEDTAVYYCARSGFGSSYWYFDVWGQGTLVTVSS
VL: DIQMTQSPSSLSASVGDRVTITCKASQDVSTAVAWYQQKPGKAPKLLIYSASYRYTGVPSRFSGSGSGTDFTLTISSLQPEDFAVYYCQQHYITPLTFGQGTKLEIKR
modifications: compound 58 coupled to cysteine thiols after TCEP reduction; positions not given; compound 58 (linker-drug) coupled to cysteine thiols after TCEP reduction; mean n=3.99 per antibody, positions not given
For B1, the “EC50 (nM), killing of Colo205 cells” value [1] was 59.8 nM, the “EC50 (nM), killing of DMS53 cells” value [1] was 75.6 nM and the “EC50 (nM), killing of FaDu cells (CTG, 6 days)” value [1] was 0.53 nM. The “EC50 (nM), killing of HCC827 cells” value [1] was 0.27 nM, the “Emax (%), killing of Colo205 cells” value [1] was 99.7% and the “Emax (%), killing of DMS53 cells” value [1] was 89.8%. For the same molecule, the “Emax (%), killing of FaDu cells” value [1] was 101%, the “Emax (%), killing of HCC827 cells” value [1] was 88.2% and the “Emax (%), killing of SK-OV-3 cells” value [1] was 49.1%.

B2: PD3 anti-TROP-2 antibody (antibody, human IgG1, kappa, V domains shown)
VH: EVQLVQSGSELKKPGASVKVSCKASGYTFTNYGMNWVKQAPGQGLKWMGWINTYTGEPTYTQDFKGRFAFSLDTSVSTAYLQISSLKAEDTAVYYCARGGFGSSYWYFDVWGQGTLVTVSS
VL: DIQLTQSPSSLSASVGDRVSITCKASQDVSIAVAWYQQKPGKAPKLLIYSASYRYTGVPDRFSGSGSGTDFTLTISSLQPEDFAVYYCQQHYITPLTFGAGTKVEIKR
notes: CDR-mutated variant designed on the hRS7 template; also called PD3 antibody
In the case of B2, the EC50 [2] is reported as 1.57 nM, the “Emax (MFI)” value [2] is reported as 16700 MFI and the Kd [3] is reported as 0.686 nM. The EC50 [4] was 13.6 nM, the “Emax (OD value)” value [4] was 1.4 OD and the “EC50 (read off the curve)” value [5] was ~2 mg/L.

B3: ADC-5 (PD3-58, n=3.88) (antibody, human IgG1, kappa, V domains shown)
VH: EVQLVQSGSELKKPGASVKVSCKASGYTFTNYGMNWVKQAPGQGLKWMGWINTYTGEPTYTQDFKGRFAFSLDTSVSTAYLQISSLKAEDTAVYYCARGGFGSSYWYFDVWGQGTLVTVSS
VL: DIQLTQSPSSLSASVGDRVSITCKASQDVSIAVAWYQQKPGKAPKLLIYSASYRYTGVPDRFSGSGSGTDFTLTISSLQPEDFAVYYCQQHYITPLTFGAGTKVEIKR
modifications: compound 58 coupled to cysteine thiols after TCEP reduction; positions not given; compound 58 coupled to cysteine thiols after TCEP reduction; mean n=3.88 per antibody, positions not given
B3 was tested, and the “EC50 (nM), killing of Colo205 cells (second parallel assay)” value [6] was 25.6 nM, the “EC50 (nM), killing of DMS53 cells (second parallel assay)” value [6] was 25.7 nM and the “EC50 (nM), killing of FaDu cells (second parallel assay)” value [6] was 0.14 nM. For the same molecule, the “EC50 (nM), killing of HCC827 cells (second parallel assay)” value [6] was 0.13 nM.

B4: ADC-7 (hRS7-9-A, n=3.72) (antibody, human IgG1, kappa, V domains shown)
VH: QVQLQQSGSELKKPGASVKVSCKASGYTFTNYGMNWVKQAPGQGLKWMGWINTYTGEPTYTDDFKGRFAFSLDTSVSTAYLQISSLKADDTAVYFCARGGFGSSYWYFDVWGQGSLVTVSS
VL: DIQLTQSPSSLSASVGDRVSITCKASQDVSIAVAWYQQKPGKAPKLLIYSASYRYTGVPDRFSGSGSGTDFTLTISSLQPEDFAVYYCQQHYITPLTFGAGTKVEIKR
modifications: compound 9-A coupled to cysteine thiols after TCEP reduction; positions not given; compound 9-A coupled to cysteine thiols after TCEP reduction; mean n=3.72 per antibody, positions not given
With B4 the “EC50 (nM), killing of Colo205 cells” value [1] was 52.8 nM, the “EC50 (nM), killing of DMS53 cells” value [1] was 72.9 nM and the “EC50 (nM), killing of FaDu cells (CTG, 6 days)” value [1] was 0.31 nM. The “EC50 (nM), killing of HCC827 cells” value [1] was 0.18 nM, the “Emax (%), killing of Colo205 cells” value [1] was 99.5% and the “Emax (%), killing of DMS53 cells” value [1] was 88.7%. For the same molecule, the “Emax (%), killing of FaDu cells” value [1] was 101%, the “Emax (%), killing of HCC827 cells” value [1] was 89.3% and the “Emax (%), killing of SK-OV-3 cells” value [1] was 66.1%.

B5: TINA anti-TROP-2 antibody (control molecule) (antibody, human IgG1, kappa, V domains shown)
VH: QVQLVQSGAEVKKPGASVKVSCKASGYTFTTAGMQWVRQAPGQGLEWMGWINTHSGVPKYAEDFKGRVTISADTSTSTAYLQLSSLKSEDTAVYYCARSGFGSSYWYFDVWGQGTLVTVSS
VL: DIQMTQSPSSLSASVGDRVTITCKASQDVSTAVAWYQQKPGKAPKLLIYSASYRYTGVPSRFSGSGSGTDFTLTISSLQPEDFAVYYCQQHYITPLTFGQGTKLEIKR
With B5 the EC50 [2] was 3.55 nM, the “Emax (MFI)” value [2] was 14200 MFI and the Kd [3] was 21.5 nM. For the same molecule, the EC50 [4] was 16.1 nM, the “Emax (OD value)” value [4] was 1.39 OD and the “EC50 (read off the curve)” value [5] was ~4 mg/L.

B6: hRS7 anti-TROP-2 antibody (control molecule) (antibody, human IgG1, kappa, V domains shown)
VH: QVQLQQSGSELKKPGASVKVSCKASGYTFTNYGMNWVKQAPGQGLKWMGWINTYTGEPTYTDDFKGRFAFSLDTSVSTAYLQISSLKADDTAVYFCARGGFGSSYWYFDVWGQGSLVTVSS
VL: DIQLTQSPSSLSASVGDRVSITCKASQDVSIAVAWYQQKPGKAPKLLIYSASYRYTGVPDRFSGSGSGTDFTLTISSLQPEDFAVYYCQQHYITPLTFGAGTKVEIKR
For B6, the EC50 [2] was 2.31 nM, the “Emax (MFI)” value [2] was 16000 MFI and the Kd [3] was 0.987 nM. The EC50 [4] was 18.3 nM, the “Emax (OD value)” value [4] was 1.37 OD and the “EC50 (read off the curve)” value [5] was ~3 mg/L.
